# According to the nanobody polyreactivity screen of Harvey et al. (2022):
# Assay: yeast display, Sf9 membrane polyspecificity reagent, FACS + sequencing; frameworks hold sequencing errors
# In short: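 Sorting gates, low and high (top ~1%), were placed on anti-HA fluorescence to track expression and on streptavidin fluorescence to track reagent binding. A clone's polyreactivity label is taken from the gate it came out of. The reagent was 10% biotinylated, detergent-solubilized Sf9 membrane, applied for 1 hour at 4 °C to galactose-induced yeast display cells.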
row,Sequence,polyreactivity (PSR sort gate)
1,QVQLVESGGGLVQAGGSLRLSCAASGFIFNSYAMGWYRQAPGKERELVATITNGGTTNYADSVKGRFTLSRDNATITVYLQMNSLKPEDTAVYYCAAVGPSVYHEYDYWGQGTQVTVSS,low polyreactivity
2,QVQLVESGGGLVQAGGSLRLSCAASGFIFNYNTMGWYRQAPGKERELVAAITWSGVSTYADSVKGRFTISRDNAKNTVYLQMNSLKPEDTAVYYCAASPYQRESVYDFGYDYWGQGTQVTVSS,low polyreactivity
3,QVQLVESGGGLVQAGGSLRLSCAASGFIFNYYAMGWYRQAPGKEREFVAAITWRGGSTNYADSVKGRFTISRDNAKNTVYLQMNSLKPEDTAVYYCAAYSVWGGSYLALDYWGQGTQVTVSS,low polyreactivity
4,QVQLVESGGGLVQAGGSLRLSCAASGFIFNYYGMGWYRQAPGKERELVATISGSGGSTYYADSVKGRFTISRDNAKNTVYLQMNSLKPEDTAVYYCNRYPPVHNVGEAYGTLHGYYWGQGTQVTVSS,low polyreactivity
5,QVQLVESGGGLVQAGGSLRLSCAASGFIFNYYVMGWYRQAPGKERELVATISWRGGRTYYADSVKGRFTISRDNAKNTVYLQMKSLKPEDTAVFYCAKESYYFTRYDYWGQGTQVTVSS,low polyreactivity
6,QVQLVESGGGLVQAGGSLRLSCAASGFIFPANAMGWSRQAPGKERELVAAINYSGGSTYYADSVKGRFTISRDNAKNTVYLQMNSLKPEDTAVYYCNADFYVVGVTTVDLSGYDSWGQGTQVTVSS,low polyreactivity
7,QVQLVESGGGLVQAGGSLRLSCAASGFIFPAYAMGWYRQAPGKERELVAAITSNGGSTYYADSVKGRFTITRDNAKNTVYLQMNSLKPEDTAVYYCNADWYWDYGWVYPEYYYWGQGTQVTVSS,high polyreactivity
8,QVQLVESGGGLVQAGGSLRLSCAASGFIFPFYVRGWYRQAPGKERELVAAINTGGSTYYADSVKGRFTISRDNAKNTVYLQMNSLKPEDTAVYYCAAKSRVKKYYFYGYNYWGQGTQVTVSS,high polyreactivity
9,QVQLVESGGGLVQAGGSLRLSCAASGFIFPGNMGWYRQAPGKERELVAAISWSGGSTRYADSVKGRFTISRDNAKNTVYLQMNSLKPEDTAVYYCAASLSGKRFTKRYYWGQGTQVTVSS,high polyreactivity
10,QVQLVESGGGLVQAGGSLRLSCAASGFIFPGYAMGWYRQAPGKERELVAAISWSGGRTYYADSVKGRFTISRDNAKNTVYLQMNSLKPEDTAVYYCNARYRQITYEYDYWGQGTQVTVSS,high polyreactivity
11,QVQLVESGGGLVQAGGSLRLSCAASGFIFPLYTMGWDRQAPGKERELVAAISVTGGSTYYADSVKGRFTISRDNAKNTVYLQMNSLKPEDTAVYYCAADLYYIWVYGYSSAMDYWGQGTQVTLSS,high polyreactivity
12,QVQLVESGGGLVQAGGSLRLSCAASGFIFPSNAMGRYRQAPGKERELVAAISSRGTRTYYADSVKGRFTISRDNAKNTVYLQMNCLKPEDTAVYYCAKYGYWGQGTQVTVSS,high polyreactivity
13,QVQLVESGGGLVQAGGSLRLSCAASGFIFPTYAMGWYRQAPGKERELVAAITWSGSDTYYADSVKGRFTISRDNAKNTVYLQMNRLKPEDTAVYYCAAEVSKYGWRYYYWGQGTQVTVSS,low polyreactivity
14,QVQLVESGGGLVQAGGSLRLSCAASGFIFPTYAMGWYRQAPGKERELVATITTNAGGTHYADSVKGRFTISRDNAKNNVYIQMNSLKPEDTAVYYCNAYGPNIYSSRYDYWGQGTQVTVSS,low polyreactivity
15,QVQLVESGGGLVQAGGSLRLSCAASGFIFPYYDMGWYRQAPGKERELVADIDSSGGTTYYADSVKGRFTISRDNAKNTVYLQMNSLKPEDTAVYYCAATYQAWTWYPYYVIYDYWGQGTQVTVSS,high polyreactivity
16,QVQLVESGGGLVQAGGSLRLSCAASGFIFPYYGMGWYRQAPGKERELVATISRSGGRTYYADSVKGRFTISRDNAKNTVYLQMNSLKPEDTAVYYCARTTPYFYVDWGGYDYWGQGTQVTVSS,high polyreactivity
17,QVQLVESGGGLVQAGGSLRLSCAASGFIFQIYAMGWYRQAPGKERELVAAISSGGSTNYADSVKGRFTISRDNAKNTVYLQMNSLKPEDTAVYYCAAATHYWYFYSFKDKSGFRGYYWGQGTQVTVSS,high polyreactivity
18,QVQLVESGGGLVQAGGSLRLSCAASGFIFQKYVMGWSRQAPGKERELVAVISRSGDSTRYADSVKGRFTISRDNAKNTVYLQMNSLKPEDTAVFYCAAASAKFTGTGYYFWGQGTQVTVSS,high polyreactivity
19,QVQLVESGGGLVQAGGSLRLSCAASGFIFQPYVMGWYRQAPGKERELVAAISWNGVSTYYADSVKGRFTISRDNAKNTVYLQMNSLKPEDTAVYYCAASYRYVPGLNYWGQGTQVTVSS,low polyreactivity
20,QVQLVESGGGLVQAGGSLRLSCAASGFIFQRNAMGWYRQAPGKERELVAAIRSSGGTTYYADSVKGRFTISRDNAKNTVYLQMNSLKPEDTAVYYCAAVTTSKFNYWGQGSQVTVSS,low polyreactivity
21,QVQLVESGGGLVQAGGSLRLSCAASGFIFQVYAMGWYRQAPGKERELVAGISRTGGSTYYADSVKGRFTISRDNAKNTVYLQMNSLKPEDTAVYYCAKPYWGYYGYFTHNYWGQGTQVTVSS,high polyreactivity
22,QVQLVESGGGLVQAGGSLRLSCAASGFIFQYYAMGWYRQAPGKERELVAVIRSGGSTYYADSVKGRFTISRDNAKNTVYLQMNSLKPEDTAVYYCNARRTYLDRYNYWGQGTQVTVSS,high polyreactivity

row,Sequence,polyreactivity (PSR sort gate)
1,QVQLVESGGGLVQAGGSLRLSCAASGFIFRAYAMGWYRQEPGKERELVAAISRGGGTYYADSVKGRFTISRDNAKNTVYLQMNSLKPEDTAVYYCAVDLLRRGFPTVVTTYDYWGQGTQVTVSS,high polyreactivity
2,QVQLVESGGGLVQAGGSLRLSCAASGFIFRDNAMGWYRQAPGKERELVAAISSRGGSTYYADSVKGRFTISRDNAKNTVYLQMNSLKPEDTAVYYCAKRPYKSRVQLDSWGQGTQVTVSS,high polyreactivity
3,QVQLVESGGGLVQAGGSLRLSCAASGFIFRDYAMGWYRQAPGKERELVATISSS,low polyreactivity
4,QVQLVESGGGLVQAGGSLRLSCAASGFIFRFNAMGWYRQAPGKERQLVAAISGSGGITYYADSVKGRFTISRDNAKNTVYLQMNSLKPEDTAVYYCAARPLFGWRGYNYWGQGTQVTVSS,high polyreactivity
5,QVQLVESGGGLVQAGGSLRLSCAASGFIFRFYAMGWYRQAPGKERELVATISKRGGTTYYADSVKGRFTISRDNAKYTVYLQMNSLKPEDTAVYFCAVRLYLEMDYWGQGTQVTVSS,high polyreactivity
6,QVQLVESGGGLVQAGGSLRLSCAASGFIFRGYAMGWYRQAPGKERELVAAISRSGGSTYYADSVKGRFTISRDNAKNTVYLQMNSLKPEDTAVYYCAARNSPGFPGDYWGQGTQVTVSS,high polyreactivity
7,QVQLVESGGGLVQAGGSLRLSCAASGFIFRKYAMGWYRQAPGKERELVAAITNGGSTYADSVKGRFTISRDNAKNTVYLQMNSLKPEDTAVYYCNARYRPRQRPEGGYWGQGTQVTVSS,high polyreactivity
8,QVQLVESGGGLVQAGGSLRLSCAASGFIFRNYVMGWYRQAPGKERELVAAINWSTGTTNYADSVKGGFTISRDNAKNTVYLQMNSLKPEDTAVYYCNARYRLRYIYSLRYDYWGQGTQVTVSS,high polyreactivity
9,QVQLVESGGGLVQAGGSLRLSCAASGFIFRPYAMGWYRQAPGKERELVAAITGGGSTYYADSVKGRFTISRDNAKNTVYLQMNSLKPEDTAVYYCAKDKGRAYFGPSPYDYWGQGTQVTVSS,low polyreactivity
10,QVQLVESGGGLVQAGGSLRLSCAASGFIFRPYAMGWYRQAPGKERELVAALTGGGSTYYADSVKGRFTISRDNAKNTVYLQMNSLKPEDTAVYYCNADRRRRSGGFAAWHFQRNDYWGQGTQVSVSS,low polyreactivity
11,QVQLVESGGGLVQAGGSLRLSCAASGFIFRRNAMGRYRQAPGKERELVAAITSRGGSTYYADSVKGRFTISRDNAKHTVYLQMNSLKPEDTAVYYCAAKFPSRFYSFVQYYYWGQVTQVTVSS,high polyreactivity
12,QVQLVESGGGLVQAGGSLRLSCAASGFIFRRNAMGWYRQAPGKERELVAAIRQRGDSTYYADSVKGRFTISRDNAKITVYLQMNSLKPEDTAVYYCNAVAKLYYWRYDYWGQGTQVTVSS,low polyreactivity
13,QVQLVESGGGLVQAGGSLRLSCAASGFIFRRYAMGWYRPAPGKEREFVAAISWSGATTYYADSVKGRFTISRDNAKITVYLQMNSLKPEDTAVYYCAKDVRRSPSTWDNYWGQGTQVTVSS,high polyreactivity
14,QVQLVESGGGLVQAGGSLRLSCAASGFIFRRYAMGWYRQAPGKERELVAAISRTGSTNYADSVKGRFTISRDNAKNTVYLKMNSLKPDDTAVYYCNARYITFNGYGYGYWGQGTQVTVSS,high polyreactivity
15,QVQLVESGGGLVQAGGSLRLSCAASGFIFRRYARGWYRQAPGKERELVASISWRGGSTYYADSVKGRFTISRDNAKNTVYLQMNSLKPEDTAVYYCAARIGATYWVDWTHRAYDYWGQGTQVTVSS,high polyreactivity
16,QVQLVESGGGLVQAGGSLRLSCAASGFIFRRYVMGWYRQAPGKERELVAAISYGGGSTYYADSVKGRFTISRDNAKITVYLQMNSLKPEDTAVYYCAKLYYRHLYEYDYWGQGTQVTVSS,high polyreactivity
17,QVQLVESGGGLVQAGGSLRLSCAASGFIFRSNAMGWYRQAPGKERELVAAITRGDSTNYADSVKGRFTITRDNAKNTDYLQKNSLKPEDTAVYYCAAGRSYHSGVHHYRKRNYWGQGTQVTVSS,high polyreactivity
18,QVQLVESGGGLVQAGGSLRLSCAASGFIFRSNTMGWYRQAPGKERELVAAITWSGGNTYYADSVKGRFTISRDNAKNTVYLQMNSLKPEDTAVYYCATVTRLYRHGYWGQGTQVTVSS,high polyreactivity
19,QVQLVESGGGLVQAGGSLRLSCAASGFIFRSYVMGWYRQAPGKEMEFVAVITSSGGRTYYADSVKGRFTISRDNAKNTVYLQMNSLKPEDTAVYYCAATRRYPPRRVWYDYWGQGTQVTVSS,high polyreactivity
20,QVQLVESGGGLVQAGGSLRLSCAASGFIFRTYAMGWYRQAPGKERELVATITGDGSTNYADSVKGRFTISRDHAKNTVYLQMNSLKPEDTAVYYGSRDDRLAGDYWGQGSQVTVSS,low polyreactivity
21,QVQLVESGGGLVQAGGSLRLSCAASGFIFRVNAMGWYRQATGKERELVAAISASGGTTYYADSVKGRFTISRDIAKNTVYLQMNSLKPEDTAVYYCNAPSRTRYDYWGQGTQVTVSS,low polyreactivity
